Stoichiometry N data for three substances are collected here from paper doi:10.1101/2021.05.06.441046.

The target in assay [1] is 5P_FL2 spike (six-proline FL2 spike with P986 reverted to K986) (SARS-CoV-2) (UniProt P0DTC2). Put plainly: SEC. In general terms: SEC sorts molecules by how far they enter the pores of the column.
For assay [2] the target is unchanged. Put plainly: negative-stain electron microscopy.
The target in assay [3] is 6P_DS3 spike (six-proline spike with the inter-protomer disulfide Y707C/T883C) (SARS-CoV-2) (UniProt P0DTC2). In words: SEC.
Assay [4] shares this target. In words: negative-stain electron microscopy.
The target is the same in assay [5]. In words: non-reducing SDS-PAGE.
The target of assay [6] is VFLIP_D614G spike (VFLIP variant bearing the D614G mutation) (SARS-CoV-2) (UniProt P0DTC2). In words: cryo-EM structure.

As to “5P_FL2 spike (six-proline FL2 spike with P986 reverted to K986) (from UniProt P0DTC2) (domain or fragment)”, the stoichiometry N in assay [1] and in assay [2] was 3 each time.

For the substance “6P_DS3 spike (six-proline spike with the inter-protomer disulfide Y707C/T883C) (from UniProt P0DTC2 13-1208) (domain or fragment)”, the stoichiometry N in assay [3], in assay [4] and in assay [5] was 3 each time.

Substance “VFLIP_D614G spike (VFLIP variant bearing the D614G mutation) (from UniProt P0DTC2) (domain or fragment)” showed a stoichiometry N in assay [6] of 3.

The stoichiometry N is the number of molecules, sites or subunits per partner or assembly.
